Assay: soluble fraction after stress (log2 fold change); higher = more stays soluble; pooled small domains, quantitative proteomics
Settings: stress: pH 4
How it was run: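 Values are on a log2 scale, where higher means more of the domain stayed soluble after pH 4 stress. They are fold changes in the soluble amount of each domain from pooled custom libraries, measured by high-throughput quantitative proteomics. The fold change is taken to reflect aggregation propensity.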

Point of comparison: “HMQVEYTRGELLQDLKEENVLYATITPSRETPTGEVDFVFKDKSIKTLYVTDVSEIEGLLMDYGIDPEVKK”, “soluble fraction (log2)” value -0.367. Against it:
- HMSTPLVATLRKRIIDGHYPPGERLAEIPVAEAFGVSRTPVRLAFRTLEQEGLLEKAGKRGYAVRA — higher, 0.0231
- HMWMTAQDFRNSSLPWSATTSYNEGQSVRVVDGSNTYYYIAIVKTQPGQSPTTHPTSWREVDA — higher, 0.311
- HMSETIVFGQQKAINTLSSEAGLSSAELNNYLKKRYQRPLFQLTVSEGADLIQGFQDGTLTKASITQYVSQ — higher, 0.22
- HMDDIHTFVYETETPFDPQKLDRYIGSLTAVYGQDMLRYKGILYFAGVDRRVVFQGVHMLAV — within 0.2 log units, -0.353
- HMDRYAVRAEELAAALAQYHRHVGVYPENLEDLIAPTGPRGYRGPYLSELPTNPSTSKPDWGYDPATGRVS — higher, 0.159
- HMESIAEIDRMNAKIFMDEFQDSLSIMQKTTNPETFFSRYDLAMERLDNMVELQQKGIKFTSDLSSLKAQ — within 0.2 log units, -0.564
- HMAEVRTLLVPIELAGMRFDQVLAELLPEFSRSRLAAWIKSGDALLDGHDAKPKGVVRGGEQIEIRLA — higher, -0.167
- HMEIPMRDKLKTYIDYLFAGAPQTAATAETKAEILQNTLDKYDDLIAEGKTPEAAYSLAVSGIGDLGDF — within 0.2 log units, -0.339
- HMEAMITEVKRINYGLISDISKSLDPFKSEGGHIIVDKRTNTFILTDLRANIEKMLWSIEIMD — within 0.2 log units, -0.248
- HMAQTEIIRVTKDIKKGDAITADKFEKVKVGAYNLPGNVVKNADELKGKFAAADLVRGDYILTSKLTDNP — higher, 0.0605
- HMYESAMSDLHARIMSSDDPHGEIYKMLTQSGPEAKYIQDMYNETSIDRGLHPDDDFEDIIDAMVAELDD — lower, -1.24
- HMGQTDTIIKTTTDLYYEMSTMSDDDKLVVAQTLRDVWMAVGRWSGKLSKKQREKVAEVKRVLGE — within 0.2 log units, -0.5
- HMESSNLESQLKKGIVPNLNGLSAKDALFLLENSGFNVKLYGMGSVKKQSLEAGKKYNKGDKITLIL — higher, 0.219
- HMEGSVTVMVNGESVTMTGKQNYIFVDVFDWYSFDLSAGKGRAIATLVNGKEAEFSQPLANGDNIELYWKE — lower, -1.42
- HMDLKENQHILQISNKGVQMGNVLKDLIIQTLNITNGNQIKAAKLLAISRAKLRYRIEQLGINISGKNI — higher, 0.0187
- HMGADGIPGKNGENGETSYVHFAYATSADGKTGFSTTDTVGKTYMGQYADFEKADSEDPTKYRWGKFQGP — higher, ≥ 0.43
- HMIDAKTTLQELTQKSGKKPEYRLIKIEGPDHLRRFTVEVFIDGQSMGTGTGHSKKEAEQNAANFALKNLQ — higher, ≥ 0.43
- HMKRANGTGSVFKLNGKRRNPWVARVTQGFDDKGRQKYVNLGYYKTKREAENELLSYNSNPYDAN — higher, -0.0271
- HMEQIETIFLSAAPYARTHIIHLLETSELFRDKYLTIVETSNGLLIYTEDKNRLLGILNSLT — lower, -1.24
- HMNVNSQQINDLEKSIQKFFDKDIKNYLNQNLSNDRMISKNEIDKIILLYYGSDKEPTLDEIKSIFN — lower, -1.19
- HMDGIDALEPLMRRVFEALPQRRSMTIERAAVAAGLDEESVKIALVRLQLEGYVANDERGWHRSKSPH — higher, -0.000736
- HMAIKNKNEQLEAIIKFADLRGEFKTADIEELLSIKSSRARLLISELVKIGKLESIGSNRNRRYHIK — within 0.2 log units, -0.302
- HMNASVIADLFRQTGASVMIHGHTHRPDIHALEANGDAAFRAVLGAWHTEGSMIRVTQDDVTLIAFP — higher, 0.173
- HMPSDLQATLRAVQGMLQGVEGVDARLAGQRILLEGDSADARARERAAAIAGIFPGVVIDFVG — higher, 0.062
- HMAVRLADMAAEKIRKMIIENKFDAGEPLSEMRLAEMFNVSRTPIREAIAILEQEGLLTTVHGKGAFIS — lower, -0.637
- HMRARTLSTTGGESLLTLAESLYPDDDRARARFIEATAAANPKLFADIAALTRVLPAGTTLRMPDLRA — higher, 0.129
- HMSLPAYIKISEVIARRINAGQILAGDRLPNERTMAVEFGVAVGTLRKALYHLQVRGLVTRKHGSGNYINK — higher, 0.249
- HMDGLTEQQADDILAFISIKGTNAEVLAALENYAGRNETFDTGLSELKVVASNLAAFGMPEENFVVDL — higher, 0.0229
- HMGYGEQEQEAQKYLALHALMSQDPTLAKMYQAPNQYKLMSHVMEQNGIKNVNDYLTDPQQLP — higher, -0.161
- HMFTFEDMDKFESLLTTGLTDVQRRIYSLVTHDGKEYDLIAETLGISVEAVRMHMSRARKKIRENYKKID — lower, -1.7
- HMHTGEVVNGKVIDVKEDQIILNVGFKSDGIITRSEYSNDNSLDLRTVVNVGDDMEAKVLKINDGEGQVLL — within 0.2 log units, -0.343
- HMEQEVLDLLFDAIRSLPEKYRRLFDMSFEQGLKNAEIAALLHVSESAVKKQKASMIQQLRDDLLRKTGKD — within 0.2 log units, -0.564
- HMQKEMDIVLQINGKMRSNLKVSSTANDDEIIKTAIESDAYKKFSLGLRIQKTIIVPNRLINIVLEK — higher, ≥ 0.43
- HMERAPAYPDGLTQREVEVLRLIASGKTDREIAEELFIGVRTVSTHVGNILNKTNSANRTEAASYANQQGL — lower, -1.53
- HMNVDALVGMPARVTRAFVQGAGEVKLDNGETWTARLSAGVTDAEASVGQTVSVIAVRGAAVEVAPE — higher, 0.158
- HMTPNATWQDDAQSLLRDLIQHQPVLIQISAAKRLRDQAEQISRITGGDTVTRDHVEAAGHALGMGVT — within 0.2 log units, -0.39
- HMVSLLDWAYKQVRRMLFSGDLPQGQKIVVAQLANQLSISPTPVKEALNRLAVEGLLEAVPRRGFQVR — lower, -1.02
- HMTPVEVNARGVHVDFSKGGILLEDVVRHLILEALRASEWKRGPAAQLLGISKETLRYRMEKYRLYPP — lower, -0.706
- HMDPEEETLKNMQRMLQDSGPLKKTEFSLLAKSLGIAEKKARKLIDRGRGRFWTVESGEQKNTQLVTPIQ — within 0.2 log units, -0.261
- HMSMTVHGALRLLQLPTIADRPYTLKEIREAYREQAQNHHPDAGGSADAMRRLNEAYQFLKERYRQA — higher, -0.0331
- HMIGPYAAAKLMTNKDFVKWLSGGVEKSVFNPNSFGQHIRRLVQISEVNPDIRDEINAVVQGLTQ — higher, -0.00821
- HMITIDADTGKRVYTRKEVADLVGASTQSIRLWEDAGAIPASVRDEGGYRYWYEEDLEAIKAYAS — within 0.2 log units, -0.411
- HMGLASEVKTEDVLNEEKYDFEPDLIGNNNEAIYQNKQTGSYVLFDRNQNKVTKVLSAGEVLNHSKYNE — higher, 0.342
- HMSLAVFLQGLLEEKQLKKADVIRRTGMEPTYGYHIFDGHKKHPARSKVLLLALAMGLTVKEAQHLLYYAG — within 0.2 log units, -0.544
- HMKGSIMIETILKELKKNNKGFNFLLEKFDISEDELMKIINDLIHDKKVFLNSNNKYEIVSD — lower, -0.958
- HMVFKSAQEGLDFYSKQLNDVDATLGRIRRGEESGNGLYGSNRVKNLEEQRKKLDSFVTAYRNAVNAT — higher, 0.177
- HMIGGASVFKQFLPLADKMLLTLIHSEFEGDTYFPVFSEKEWLLQESSSLLSATGYQLSFQTYIR — higher, 0.013
- HMDSVVPNVVGMTAEKANKALTDAGLNVKITGATIGSGAVVHSQSIPAGTVTSKGTVVSIEMRFAAAEGD — within 0.2 log units, -0.193
- HMRPQELSSLNTNQMRLYNSLPEAFITAEAKDIADKLRYSERSLFRFLNESNLFTKTEHGSYAKKA — lower, -0.585
- HMQAKNGTVTGSVVNVRGGAGTQYAVKGKASRGTKVTILGQQSSWLNVRLDNGVTGWIHADYVQISE — lower, -1.43
- HMYSMSAPMPGVILEIKVAPGDQVNKGDVVMVLEAMKMKNDLHAARTGTVESIDINSGEQVKYGQVLLRFV — higher, 0.0869
- HMFSGVQLGQAISEAIKRKNVSQKEVADHFGVKQPSVSGWIKNGRIDKKHLDKLIDYFSDVVTPSHFGIE — higher, 0.241
- HMIDAAHLEKAILSLPEGARAVFVLIETEGFAHREVAELLGISEGTSKSQLNYAKKRLREILV — higher, -0.0621
- HMKAPLTFVIEGKEYEAFDQYKTGAELKQLAGIPLDTELFLSISKPYQDELIENEKQVNLARPETEYFFVK — within 0.2 log units, -0.494
- HMSSETTVPAVVGIKEDKARQLASEQGLRLRVKSREESADVEEGIIISQDPNSNTKVKKGDEIEVVVS — higher, 0.32
- HMQISDESSIAKIADEVISEFPSQVSEFRSGKEKVLQFLIGQVMKKTKGKANPQITAKILREKLS — higher, 0.17
- HMVKLSVGDIVQFAGGPHYVSSSAAKPASSPTAGPAKVTMIYQGAKHPYHIVHTTSASTVWGWVDADKVVK — within 0.2 log units, -0.208
- HMVQQTEEDVIRDMYVEGKIFTIGEEVTDTYTGVTGKIIRRGTNYVTFMSEDGETYKKWLYEIELA — lower, -1.82
- HMVNSIQIHKKLRLDKRAGSDNWYARLTLPNGKRLVKTTKTEDIETAKEVALRLYYEVDARIQNKLPAT — higher, -0.158
- HMATETMGMIIRRLRREHGLTQEELAASIGVTAQAVSKWEKDLGMPDISQIVPLAGAFNVRTDVLFGLE — lower, -0.672
- HMEKPTRNKLVEIIIQNKNVTTEQMANLLNISRRAVAKHIKKLQEEGIIRRIGPDFGGHWEIVK — higher, 0.225
- HMKDEGSLKVIGQMVVIGIPQSEAKRFANTYTVAQIRAALQYTQKRSEDKNASKLENVAAYFRQALVRNWG — higher, ≥ 0.43
- HMKIVQDIAFSDFLNEVEKDNVLDVNIKGDLINGNLADGRKFKTYTPYDPNLIEKLSNKNVTINVEPYN — higher, 0.00986
- HMTSSKISFIDPVNGGKVSVSLENSTLEKLQNRFGVNSVVRNEAGDVELKDKAQEFVAGWFADIAYTRG — lower, -0.89
- HMDHKTKLQEVLQKSGDVFIEYRLIKEEGPAHERIFWIEVYVDDQLIGTGQGKSKKLAEQAAAENALAALE — lower, -1.15
- HMDDFITLVIHTPAHAQNLRNILESHGMEVRLEDFVSFKSPVAVAQRVKIRPKDLPLALKIIESGE — higher, 0.126
- HMQGEDEILKIHEALEELAQIDARLVRVVEMRYFVGLSNQEIADSLGVTTRTVERDWEKARTFLFNALHP — lower, -0.717
- HMDSYSILGIEKESSMEDIEKAYIDKISKIKKEVKNEKNAAAFEAVLTKAYNDILSQKENISEEQELAE — higher, 0.22
- HMEFDSLINYEVKKKETLFSISKKFKIEINDLLSFNTELKNNKLKKNSIIIIPLKKKIVESQNFEKQKIID — lower, -0.719
- HMNIKITKSKNSEHYSIIYNTKINGKRTSKIYENIGNFEKLKLRAGEQEPIEWLKNYVSELNKKQKEDT — higher, 0.22
- HMRAGHDFEALKHIESSLDKHLTDEGIKIKSEKRGAIVARWYQSHVEGREVTDDDVHTWIELFF — lower, -2.2
- HMAGASQAVKAQLRLREMILAGELPGGARIAELTLVEKLGVSRTPIRAALMRLEQEGLLHRLPGGGYAVRT — within 0.2 log units, -0.41
- HMGASALTEREREVLRLLEGGGSDKRIARQLAISEHGVRYHLKSIYKKLGVHDRVSAIAAGRRLAS — higher, ≥ 0.43
- HMEKTLAERVNDILAEIKMTKQELAMQLNISRSAVSQYLNGKYSSNPEAIEARLRDFVSSYDRG — within 0.2 log units, -0.243

— the domain aggregation screens of Martell et al. (2025)
